Literature values as cited in publication PMC10256198 (European Heart Journal, 2023).

Conditions: stated in the introduction, no reference given

Ghrelin: endogenous 28 amino acid anabolic peptide hormone, activated by acylation of amino-acid 3 (GSSFLSPEHQRVQQRKESKKPPAKLQPR; Ghrelin-28; UniProt Q9UBU3 24-51, looked up)
plasma half time: 24 to 30 min
